The values below come from paper PMC4728125, “Molecular basis for allosteric specificity regulation in class Ia ribonucleotide reductase from Escherichia coli” (eLife, 2016).

Series [1] deals with ribonucleotide reductase β2 (Escherichia coli) (UniProt P69924). To be noted: cited from earlier work.
Series [2] deals with the molecule itself. As to the kind of experiment: crystal structure; α4β4 crystal form; 25 μM α2 and 50 μM met-β2 in 50 mM HEPES, 15 mM MgCl2, 1 mM EDTA, pH 7.6, with 10 mM dATP and 5 mM DTT; hanging drop, ~25°C; crystals soaked with CDP/dATP, UDP/dATP, ADP/dGTP or GDP/TTP; four structures at 2.97-3.40 Å.

ribonucleotide reductase β2 (Escherichia coli), sequence (P69924 2-376): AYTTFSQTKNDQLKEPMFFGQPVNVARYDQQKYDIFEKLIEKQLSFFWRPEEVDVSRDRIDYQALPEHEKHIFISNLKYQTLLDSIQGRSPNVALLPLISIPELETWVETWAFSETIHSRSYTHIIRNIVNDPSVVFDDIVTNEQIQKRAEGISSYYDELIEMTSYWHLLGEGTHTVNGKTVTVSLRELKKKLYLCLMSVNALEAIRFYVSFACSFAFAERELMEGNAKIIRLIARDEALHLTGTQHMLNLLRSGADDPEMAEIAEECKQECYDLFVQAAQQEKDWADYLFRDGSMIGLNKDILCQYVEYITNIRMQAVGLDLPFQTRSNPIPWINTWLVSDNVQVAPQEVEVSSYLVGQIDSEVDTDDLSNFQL

Broadly, the Kd is the constant that tells how readily two partners part at equilibrium. As to “ribonucleotide reductase α2 (from UniProt P00452)”, the Kd in series [1] is 0.4 µM.

B1: Escherichia coli class Ia ribonucleotide reductase catalytic subunit α2 (enzyme, E. coli, UniProt P00452 1-761, looked up)
chain: MNQNLLVTKRDGSTERINLDKIHRVLDWAAEGLHNVSISQVELRSHIQFYDGIKTSDIHETIIKAAADLISRDAPDYQYLAARLAIFHLRKKAYGQFEPPALYDHVVKMVEMGKYDNHLLEDYTEEEFKQMDTFIDHDRDMTFSYAAVKQLEGKYLVQNRVTGEIYESAQFLYILVAACLFSNYPRETRLQYVKRFYDAVSTFKISLPTPIMSGVRTPTRQFSSCVLIECGDSLDSINATSSAIVKYVSQRAGIGINAGRIRALGSPIRGGEAFHTGCIPFYKHFQTAVKSCSQGGVRGGAATLFYPMWHLEVESLLVLKNNRGVEGNRVRHMDYGVQINKLMYTRLLKGEDITLFSPSDVPGLYDAFFADQEEFERLYTKYEKDDSIRKQRVKAVELFSLMMQERASTGRIYIQNVDHCNTHSPFDPAIAPVRQSNLCLEIALPTKPLNDVNDENGEIALCTLSAFNLGAINNLDELEELAILAVRALDALLDYQDYPIPAAKRGAMGRRTLGIGVINFAYYLAKHGKRYSDGSANNLTHKTFEAIQYYLLKASNELAKEQGACPWFNETTYAKGILPIDTYKKDLDTIANEPLHYDWEALRESIKTHGLRNSTLSALMPSETSSQISNATNGIEPPRGYVSIKASKDGILRQVVPDYEHLHDAYELLWEMPGNDGYLQLVGIMQKFIDQSISANTNYDPSRFPSGKVPMQQLLKDLLTAYKFGVKTLYYQNTRDGAEDAQDDLVPSIQDDGCESGACKI
notes: Ribonucleotide reductase class Ia α subunit (NrdA, protein R1), E. coli; residues about 4-737 modelled; 172-kDa homodimer; no tag is named for this preparation; The His6-tagged α2 was used only in the activity assays; also called α subunit; RNR α; source: prepared as described (Salowe et al., 1987; Salowe and Stubbe, 1986), purified
B1: the binding result in series [2] is reported as “binds”.
